Data taken from PMC13379383.

Target: thrombin (human, UniProt P00734;P00734 328-363;364-622)
Experiment: AuNP aggregation (plasmonic scattering); 16 nM thrombin, 4.59 uM TBA, 0.1 M NaCl, pH 7.4; LoD 0.5 nM (not a Kd)

AGTCCGTGGTAGGGCAGGTTGGGGTGACT (ssDNA, 5'-amine C6 linker) [TBA (thrombin-binding aptamer)]
binding result: binds
